Results published in paper PMC2944823, “Structural Basis for the Secretion of EvpC: A Key Type VI Secretion System Protein from Edwardsiella tarda” (PLoS ONE, 2010).
Numbering of substitutions follows the chain as printed. Numbers in names are those of the source. Where “and” joins values, the source holds several entries; their conditions need not be identical. Equal entries are not always repeated.

B1: EvpC C-terminal deletion mutant (EvpC M1-N160), K161 K162 K163 deleted (domain or fragment)
chain: MAFDTYIKLDKVDGESTDDKHKKWIEVLGFAWGAGNECTMESGTQGLNTGKAMMSVLRVTKWMDCASVKLASAAVQGQNFPTLELEICTQAGDKFAFCIYKFTHVAVSSYQCSGATGGSDRPQETIDFAYKEVTWEYVPQDQNGKAGGKIGPEGWSLITN
notes: EvpC, Edwardsiella tarda PPD130/91, residues M1-N160, lacking the C-terminal K161, K162 and K163; also called EvpC 1-160; C-terminal mutant; source: expressed
B2: EvpC from Edwardsiella tarda PPD130/91, wild type, recombinant with 6His tag at C terminus (pETMevpC) (natural protein)
chain: MAFDTYIKLDKVDGESTDDKHKKWIEVLGFAWGAGNECTMESGTQGLNTGKAMMSVLRVTKWMDCASVKLASAAVQGQNFPTLELEICTQAGDKFAFCIYKFTHVAVSSYQCSGATGGSDRPQETIDFAYKEVTWEYVPQDQNGKAGGKIGPEGWSLITNKKK
modifications: selenomethionine (cells grown in defined M9 medium supplemented with 25 mg/L SelMet)
notes: EvpC, Hcp homolog of the type VI secretion system (EVP cluster), Edwardsiella tarda PPD130/91; evpC gene amplified from genomic DNA; crystal model holds Ala2 to Lys163; K161-K163 are called the C-terminal residues and the model ends at Lys163, so the whole protein (163 residues) is likely. pETM is a pET32 derivative; no other vector-derived residues are told; also called wild type EvpC; Hcp …
B3: EvpC D4A E26A double mutant, 6His tag at C terminus (pETMevpC D4AE26A) (natural protein)
chain: B2 chain with D4A, E26A
notes: EvpC, Edwardsiella tarda PPD130/91, with D4 and E26 substituted with Ala; The text speaks only of 'double' mutants for the gel filtration; source: expressed (pETM plasmid)
B4: EvpC E15A E26A double mutant, 6His tag at C terminus (pETMevpC E15AE26A) (natural protein)
chain: B2 chain with E15A, E26A
notes: EvpC, Edwardsiella tarda PPD130/91, with E15 and E26 substituted with Ala; The text speaks only of 'double' mutants for the gel filtration; source: expressed (pETM plasmid)
B5: EvpC D4A E15A E26A triple mutant (natural protein)
chain: B2 chain with D4A, E15A, E26A
notes: EvpC, Edwardsiella tarda PPD130/91, with D4, E15 and E26 substituted with Ala; also called N-terminal triple mutant; N-terminal mutant; source: expressed
B6: EvpC D4A E15A double mutant, 6His tag at C terminus (pETMevpC D4AE15A) (natural protein)
chain: B2 chain with D4A, E15A
notes: EvpC, Edwardsiella tarda PPD130/91, with D4 and E15 substituted with Ala; The text speaks only of 'double' mutants for the gel filtration; source: expressed (pETM plasmid)

Columns and labels:
[1] = target: the molecule itself; assay: SEC; gel filtration (Hiload 16/60 Superdex 75) of EvpC wild type and mutants at 2 mg/ml; self-association, hexamer
[2] = target: the molecule itself; assay: dynamic light scattering; DynaPro instrument, room temperature, EvpC at 6 mg/ml; polydispersity 5%
[3] = target: the molecule itself; assay: AUC; sedimentation velocity, ~2 mg/ml (methods: 2.5 mg/ml), 10 mM Tris-HCl pH 7.0, 200 mM NaCl, with and without DTT, 40,000 rpm, 20°C, absorbance at 280 nm, Sedfit; self-association, dimer and hexamer

Protein | stoichiometry N [1] | stoichiometry N [2] | stoichiometry N [3]
B1 | 6 |  | 
B2 |  | 12 | 2 and 6
B3 | 6 |  | 
B4 | 6 |  | 
B5 | 6 |  | 
B6 | 6 |  | 
